This passage reports Ki and Kd results from publication PMC5975642 (2018).

Assay [1] concerns the target T1, MC4R (Homo sapiens, UniProt P32245). Description: cell competition binding against biotinylated alpha-MSH.
In assay [2] the target is T1, MC4R. Description: cell saturation binding.

T1 sequence (P32245 whole entry): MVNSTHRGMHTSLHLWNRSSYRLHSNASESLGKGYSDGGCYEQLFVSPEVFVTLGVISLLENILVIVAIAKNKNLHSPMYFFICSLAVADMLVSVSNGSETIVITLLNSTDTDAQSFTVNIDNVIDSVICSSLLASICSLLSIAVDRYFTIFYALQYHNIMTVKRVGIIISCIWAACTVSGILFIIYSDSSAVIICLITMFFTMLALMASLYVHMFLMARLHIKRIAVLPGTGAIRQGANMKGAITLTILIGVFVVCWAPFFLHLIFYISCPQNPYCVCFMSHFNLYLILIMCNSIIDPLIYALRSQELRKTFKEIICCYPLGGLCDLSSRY

B1: LCN2 (protein)
chain: QDSTQNLIPAPSLLTVPLQPDFRSDQFRGRWYVVGLAGNAVQKKTEGSFTMYSTIYELQENNSYNVTSILVRDQDQGCRYWIRTFVPSSRAGQFTLGNMHRYPQVQSYNVQVATTDYNQFAMVFFRKTSENKQYFKITLYGRTKELSPELKERFTRFAKSLGLKDDNIIFSVPTDQCIDN
By Ki is commonly meant the equilibrium dissociation constant of an inhibitor or competing ligand from its target. A higher Ki goes with weaker binding. In the assay with MC4R [1], B1 registered a Ki of 46.3 nM. That is a double-digit nanomolar value.

B2: LCN2 (protein)
chain: B1 chain
modifications: biotinylated LCN2
The term Kd denotes the concentration at which binding is half-saturated. For B2, binding with MC4R [2] was characterised by a dissociation constant (Kd) of 51.4 nM.
